According to patent publication US20240360208A1 (Hoffmann-La Roche, published 2024):
Residue numbers refer to the chain shown, from its start. Names may count otherwise. One block for each binder: values may come before it.

Legend:
[1] = target: T1, human CCL2 (MCP1) - wild type (wt) (human, UniProt P13500 24-99); assay: SPR T200, 37 C, antibody captured, 1:1 model
T1 construct: Made in-house or bought (R&D Systems 279-MC), depending on the assay; can form dimers; also called wt human CCL2; WT human CCL2
Procedure: (§1) Antibody clone supernatants were diluted 1:2 in system buffer and were captured for 1 min at 5 μl/min. […] Analyte kinetics were performed at 30 μl/min. As analyte in solution wt human CCL2 or monomeric CCL2 P8A variant CCL2 were used. Analytes were injected at 90 nM highest concentration. The analyte contact time was 3 min and the dissociation time was 10 min. The Biaevaluation software V.3.0 was used according to the instructions of the manufacturer GEHC. A 1:1 binding model with RMAX local was applied to apparently estimate kinetic rates.

[2] = target: T2, human CCL2 (MCP1) - P8A variant (human, UniProt P13500 24-99); assay: SPR T200, 37 C, antibody captured, 1:1 model
T2 construct: In-house point mutant that cannot dimerise; also called monomeric human CCL2; monomeric CCL2
Procedure: as §1

[3] = target: T1, human CCL2 (MCP1) - wild type (wt); assay: cell-based or functional assay
[4] = target: T2, human CCL2 (MCP1) - P8A variant; assay: number printed beside the row of sensorgrams; the assay and the CCL2 form behind the number are not stated on the sheet (the sensorgrams are on monomeric CCL2)
[5] = target: T1, human CCL2 (MCP1) - wild type (wt); assay: SPR, C1 chip, anti-human Fc capture, 25 C, pH 7.4, Langmuir 1:1
Procedure: The sample and system buffer was PBS-T (10 mM phosphate buffered saline including 0.05% Tween20) pH 7.4. The flow cell was set to 25° C.—and the sample block set to 12° C.—and primed with running buffer twice. The bispecific antibody was captured by injecting a 2 μg/ml solution for 60 see at a flow rate of 10 μl/min. Association was measured by injection of human CCL2 (wt) in various concentrations in solution for 150 see at a flow rate of 30 μl/min starting with 30 nM in 1:10 dilutions. The dissociation phase was monitored for up to 1200 sec and triggered by switching from the sample solution to running buffer. […] Bulk refractive index differences were corrected by subtracting the response obtained from a goat anti human IgG Fc surface. Blank injections are also subtracted (=double referencing). For calculation of kinetic parameters, the Langmuir 1:1 model was used.

[6] = target: T2, human CCL2 (MCP1) - P8A variant; assay: number printed over the column of sensorgrams; the assay and the CCL2 form behind the number are not stated on the sheet (the sensorgrams are on monomeric CCL2)
[7] = target: T1, human CCL2 (MCP1) - wild type (wt); assay: cell-based or functional assay; remark: listed apart in the source
[8] = target: T3, human FcγRIIb receptor on CHO-K1 cells (clone 223) (human, UniProt P31994 43-310); assay: cell-based or functional assay
T3 sequence (looked up): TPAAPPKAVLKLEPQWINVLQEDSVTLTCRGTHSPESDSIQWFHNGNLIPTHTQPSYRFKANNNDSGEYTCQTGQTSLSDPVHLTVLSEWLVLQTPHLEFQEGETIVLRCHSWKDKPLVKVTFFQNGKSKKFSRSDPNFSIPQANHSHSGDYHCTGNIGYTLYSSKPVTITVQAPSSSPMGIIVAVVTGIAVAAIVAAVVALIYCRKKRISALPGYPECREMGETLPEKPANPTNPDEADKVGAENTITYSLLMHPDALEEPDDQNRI

B1: 1A4 (antibody, V domains shown)
VH: QSLEESGGDLVKPGASLTLTCTASELDFYWICWVRQAPGKGLEWIACIGAGSSGSTYYASWAKGRFTVSKTSSTTVTLQMTSLTAADTATYFCARTGTEFTYYSLWGPGTLVTVSS
VL: ALVMTQTPSSVSAAVGGTVTINCQASQSVYNNNMAWYQQKPGQPPKLLIYTASSLASGVPSHFRGSGSGTQFTLTISDLESDDAATYYCAGYKSYSNDEYGFGGGTEVVVK
notes: which format stood in each assay is not always stated; also called CCL2-0008
Kd [1]: 73 pM | T1/2 [1]: 1.67 h | Kd [2]: 59 pM | T1/2 [2]: 2.9 h | THP1 chemotaxis [fold change compared to IgG control] [3]: 4.5 fold

B2: CNTO888H0625/CNTO888L0616 (antibody, V domains shown)
VH: QVQLVQSGAEVKKPGSSVKVSCKASGGTFSHYGISWVRQAPGQGLEWMGGIIHIFHTANYAQKFQGRVTITADESTSTAYMELSSLRSEDTAVYYCARYDAHYGELDFWGQGTLVTVSS
VL: EIVLTQSPATLSLSPGERATLSCRASQHVSDAYLAWYQQKPGQAPRLLIYDASDRAEGVPARFSGSGSGTDFTLTISSLEPEDFAVYYCHQYIHLHSFTFGQGTKVEIK
notes: also called modified CNTO888 variant (VH H0625 / VL L0616)
Affinity relative to parent CNTO888 [4]: 3 X

B5: 2F6 (antibody, IgG1, V domains shown)
VH: QSLEESGGGLVQPEGSLTLTCTASGFSFNNNYYMCWVRQAPGKGLEWIGCISTDDSNTHYASWAQGRFTISKASSTALTLQVAGLTVADMATYFCARDAHFTSYGYGFDLWGPGTLVTVSS
VL: DIVMTQTPASVSAAVGGTVSINCRASEDIENLVAWYQQKPGQPPKLLIYQASKLASGVPSRFKGSGSGAEFTLTIGDLESADAATYYCQGDYGSGWIMYSFGGGTDLVVK
notes: also called CCL2-0014
Kd [1]: 59 pM | T1/2 [1]: 0.867 h | Kd [2]: 91 pM | T1/2 [2]: 0.783 h | THP1 chemotaxis [fold change compared to IgG control] [3]: 6.7 fold

B7: 11K2H1503/11K2L1338 (antibody, V domains shown)
VH: QVQLVQSGAEVKKPGSSVKVSCKASGLTISHTYMHWVRQAPGQGLEWMGRIDPDNHNTKFDPKFQGRVTITADTSTSTAYMELSSLRSEDTAVYYCARGVFGFFDHWGQGTTVTVSS
VL: DIQMTQSPSSLSASVGDRVTITCKAFEDIYNRRAWYQQKPGKAPKLLIHGATSLEHGVPSRFSGSGSGTDYTLTISSLQPEDFATYYCQQFWSAPYTFGGGTKVEIK
notes: also called modified 11K2 variant (VH H1503 / VL L1338)
Affinity relative to parent 11K2 [6]: 0.2

B10: 11K2H1514/11K2L1338 (antibody, V domains shown)
VH: B7 VH with D54E, D105E
VL: B7 VL
notes: also called modified 11K2 variant (VH H1514 / VL L1338)
Affinity relative to parent 11K2 [6]: 0.02

B11: 11K2H1510/11K2L1338 (antibody, V domains shown)
VH: B7 VH with D105E
VL: B7 VL
notes: also called modified 11K2 variant (VH H1510 / VL L1338)
Affinity relative to parent 11K2 [6]: < 0.01

B12: 11K2H1503/11K2L1201 (antibody, V domains shown)
VH: B7 VH
VL: B7 VL with F26T, R33L, W92R
notes: also called modified 11K2 variant (VH H1503 / VL L1201)
Affinity relative to parent 11K2 [6]: 0.05

B14: CKLO2-GG01 (=P1AF8137) (bispecific antibody)
heavy 1: DIQMTQSPSSLSASVGDRVTITCKAFEDIYNRRAWYQQKPGKAPKLLIHGATSLEHGVPSRFSGSGSGTDYTLTISSLQPEDFATYYCQQFWSAPYTFGGGTKVEIKSSASTKGPSVFPLAPSSKSTSGGTAALGCLVKDYFPEPVTVSWNSGALTSGVHTFPAVLQSSGLYSLSSVVTVPSSSLGTQTYICNVNHKPSNTKVDKKVEPKSCDKTHTCPPCPAPEYLGGDSVFLFPPKPKDVLMISRTPEVTCVVIDVSHEDPEVKFNWYVDGVEVHNAKTKPREEQYNSTYRVVSVLPVLHRDWLNGKEYKCKVSNKALPKPIEKTISKAKGQRREPQVYTLPPCRDELTKNQVSLWCLVKGFYPSDIAVEWESNGQPENNYKTTPPVLDSDGSFFLYSKLTVDKSRWQQGNVFSCSVMHEALHAHYTRKELSLSP
heavy 2: not shown
light 1: QVQLVQSGAEVKKPGSSVKVSCKASGLTISHTYMHWVRQAPGQGLEWMGRIDPDNHNTKFDPKFQGRVTITADTSTSTAYMELSSLRSEDTAVYYCARGVFGFFEHWGQGTTVTVSSASVAAPSVFIFPPSDEQLKSGTASVVCLLNNFYPREAKVQWKVDNALQSGNSQESVTEQDSKDSTYSLSSTLTLSKADYEKHKVYACEVTHQGLSSPVTKSFNRGEC
light 2: EIVLTQSPATLSLSPGERATLSCRASQHVSDAYLAWYQQKPGQAPRLLIYDASDRAEGVPARFSGSGSGTDFTLTISSLEPEDFAVYYCHQYIHLHSFTFGQGTKVEIKRTVAAPSVFIFPPSDRKLKSGTASVVCLLNNFYPREAKVQWKVDNALQSGNSQESVTEQDSKDSTYSLSSTLTLSKADYEKHKVYACEVTHQGLSSPVTKSFNRGEC
IC50, inhibition of THP-1 migration (chemotaxis assay) [7]: 0.2 µg/mL

Next, values leading:

Affinity relative to parent CNTO888 [4]: 10 X
B3: CNTO888H0634/CNTO888L0616 (antibody, V domains shown)
VH: B2 VH with I34T, H56G
VL: B2 VL
notes: also called modified CNTO888 variant (VH H0634 / VL L0616)

Kd [1]: 350 pM | T1/2 [1]: 0.317 h | Kd [2]: 11 pM | T1/2 [2]: 8.63 h | THP1 chemotaxis [fold change compared to IgG control] [3]: 6.9 fold
B4: murine 11K2 (antibody, V domains shown)
VH: EVQLQQSGAELVKAGASVKLSCPASGLNIKDTYMHWVKQRPEQGLEWIGRIDPANGNTKFDPKFQGKATITADTSSNTAYLQLSSLTSEDTAVYYCARGVFGFFDYWGQGTTLTVSS
VL: DIQMTQSSSSFSVSLGDRVTITCKATEDIYNRLAWYQQKPGSAPRLLISGATSLETGVPSRFSGSGSGKDYTLSITSLQTEDVATYYCQQFWSAPYTFGGGTKLEIK
notes: also called 11K2m; X-0048

binding result [5]: binds
B6: 1A5//2F6-WT IgG1 (bispecific antibody, V domains shown)
VH 1: QEQLVESGGDLVKPEGSLTLTCTASGFSFSTSYWMCWVRQAPGKGLELIACISSSIGVTYYASWAEGRFTISKTSSTTVTLQMTSLTVADTATYFCARTTDDNWNVGFNLWGPGTLVTVSS
VL 1: AYDMTQTPASVEVGVGGTVTIKCQASQSIGNRYLSWYQQKPGQPPKLLIYGTSTLASGVSSRFKGSGSGTQFTLTISGVESADSATYYCQQGATISYLDNAFGGGTEVVVK
VH 2: B5 VH
VL 2: B5 VL
notes: CrossMab, wild type IgG1 with knobs-into-holes; crossed arm 1A5, non-crossed arm 2F6; also called CCL2-0058; P1AA3427

binding result [5]: binds
B8: 11K2//1G9-PGLALA (bispecific antibody, V domains shown)
VH 1: B7 VH with H31D, D54A, H56G, H106Y
VL 1: B7 VL with F26T, R33L, H49S, H56T
VH 2: QSLEESGGDLVKPGASLTLTCKASGIDFSLYSYMCWVRQAPGKGLEWIACVDAGASGSTYYASWAKGRFTISKTSSTTVTLQMTSLTAADTATYFCARGILYYTWPYPAGAIDAFDSWGPGTLVTVSS
VL 2: AYDMTQTPASVSEPVGGTVTIKCQASESISNYLSWYQQKPGQPPKLLIYKASTLASGVPSRFKGSGSGTEYTVTISGVQSDDAATYYCQQSYSSSNVFNTFGGGTEVVVK
notes: CrossMab, IgG1 with L234A, L235A, P329G, knobs-into-holes; crossed arm humanized 11K2, non-crossed arm 1G9; also called CCL2-0043; P1AA3463

binding result [5]: binds
B9: ABN912//11K2-PGLALA (bispecific antibody, V domains shown)
VH 1: B7 VH with H31D, D54A, H56G, H106Y
VL 1: B7 VL with F26T, R33L, H49S, H56T
VH 2: EVQLVQSGGGLVQPGGSLRLSCAASGFTFSHYWMSWVRQAPGKGLEWLANIEQDGSEKYYVDSVKGRFTISRDNAKNSLYLQMNSLRAEDTAVYFCARDLEGLHGDGYFDLWGRGTLVTVSS
VL 2: AIQLTQSPSSLSASVGDRVILTCRASQGVSSALAWYQQKPGKAPKLLIYDASSLESGVPSRFSGSGSGPDFTLTISSLQPEDFATYFCQQFNSYPLTFGGGTKVEIK
notes: CrossMab, IgG1 with L234A, L235A, P329G, knobs-into-holes; VH/VL-crossed arm humanized 11K2, non-crossed arm ABN912; also called CCL2-0041; P1AA3411

IC50, inhibition of THP-1 migration (chemotaxis assay) [7]: 0.2 µg/mL
B13: CKLO2-IgG1 (bispecific antibody)
heavy 1: not shown
heavy 2: not shown
light 1: B14 light 1
light 2: B14 light 2

Depletion level max (%) of CCL2 from the supernatant [8]: 85% | EC50 [nM] of CCL2 depletion [8]: 0.5 nM | IC50, inhibition of THP-1 migration (chemotaxis assay) [7]: 0.2 µg/mL
B15: CKLO2-SG1095 (=P1AD8325) (bispecific antibody)
heavy 1: B14 heavy 1 with Y226L, L227W, G228N, D230P, V242T, I256V, H260D, Q287L, P299T, K318T
heavy 2: not shown
light 1: B14 light 1
light 2: B14 light 2
